Test results taken from the DeepSol protein solubility set.

Assay: soluble on expression in E. coli; label from the status in PepcDB or PDB records

| Sequence | soluble on expression in E. coli |
| --- | --- |
| MKKLFGVGPDLLGDGKVLFEWSPKGNFLAAAGSKRKVNIFDRNGRLYDEVHFPPAEYPNPDGRACAAAQMQWDPAGEQLAILPAGNTHVFIWLAGNKEVQKIESEFKTQEFSCMAWSRNGMYLGVATVKGNVMMYNARERKKTPLVGKHTKKIVAAAWNKDNIMALAGQDKTVTLTDGVTGDTIKTFHLKDVPMDLCVSDKKEDGYSRREENTYSLNINRKTLYIMQCTAEGDRPLELAFLDTYGPIMKHSWFGDGYILLGYKNGYVAVVSSHSREISEEVHSGKYLDTLTDVTYCASLGRVAMAGANCVRVLDANADYNEIKGDAVDLDANQAIEKVGWTKDGQVLTVGTHNGYMHSFLASLPMVYDFHGTRVLYLTSLLEMTLLDVSRRQTVARIELENEPAFCGLGPSHAAVGMNNQAAFYSLGEKVGKVVQRREYLGTITAIKLNETQAAVLTGGHVVVHPISVEAGHAPDELDVVIPGPGQPANITCVALTPTFVITGSRTGTLSYYLSPDVTPVNEFRHDDGGIVRLFPQATGARLVFEDDKGALHLFNPVNDHVVAVPYTGRAETVMWDTSDTNVMVIGDGTALHSFLYVPVSLTGPQVQDLGKQAVPATHTPLTVCNGVVGCRLKSGAMDNVTLESHKMLQPGDAVARAAPAKRFAAALKLYKLRDAVECAKQLRQVESWRTLALAALDVLDIDTAINAYREIGDASMVLSLERVRQHEDRNLLSAHIMVLLEKDYGQAQELFLRSSVPRAALEMRMDLKHWTDALKLAEQLDPDAIATICKEHGAMLEMTGEYSNAKSHYQQALDALAVSVGPAQPDLEAACKAGIARTTLQLGDLRQGRQLAMQLNSQTLFKECALILEGLQQLTEAAEMYERAGQFERAASIYIQTKNFAAAAPLMARISSSKLQLQFAKAKEAEGRWQEAAAAYEAAGDMDAVVRLCLERLSQPQRAYAIVRKTQSVEAANQLSRFCLQSQDFGGAVEFLLMAGQMDQAFDIAMGHNEMDTFARIVAASAKPVDYQRIAQYYESRGEYDKAADMWSKCDQAPRAVQLYLKVGTNPALEKAVQVVEQTRSHQLGVLVLDYVNEEKDGTTRDEFRFKLNIAMGQFAEAARDALEMARFEQEEGNYRVAHDKLFGTVKQLEALNTKPPGELLRALMLLHSYTLVKSLIAINDHTTAARMLVRVARNISKFPKHIVPILTSTVIECHRANLKKTAFEYASMLMRPEYRDQVAVKYKKKIELMVRKPEKDPEELEEPLADCPFCNMPGPETELQCISCQNILPFDLATGKRMVLSDWAECPGCKFPASASQFIRIISAEGRCPM | not soluble |
| MTDTHAHLDFLEPEELAEAAAHLPKLRAVLTLGVDPGRWEKTLSLAQGNVYAAVGLHPTSAHLLSPRWRRPFRHYARSERVRAIGETGLDYYWTPETRAVQLKALDFQAALAEALGLPLVLHVRSKDGKAEEDLAAWLLLHRPKRAVLHAFSGHPALEAAGLEVGAYFSFAGPLTYRKNAALREAAARLPEDRLLVETDTPFLPPEPFRGKRNRPHYVRFTLEKLAEARGLPFAEAEALTDRNARVCFGWP | soluble |
| MGSDKIHHHHHHMPAKTLYCATLASLNGLSDNRNATGISFIFQGGAVEEMQKVLVNEKGMAWITCEKCSHTSGIDVSRLSDRAPFIRYKCVKCDAEFDVACEFRKSYRKEVHLNGVFIQQQPREDYAGRIEILDISKTGVRFKTRVKFDFKPGYLLKLSFSLDDAKKTNINQTVEVKWVNGQLVGGEFRNQDHWTSQQLGFYFMS | not soluble |
| NAIKESARLPELSLWEKIKAYFFTTHHAEALECIFNLYHHQELNLTPVQVRGAYIKLRALASQGCKEQFIIESQEHADKLIIKDDNGENILSIEVECHPEAFGLAKEINKS | soluble |
| MGSDKIHHHHHHMTTSKRVAIIGAGPSGLAQLRAFQSAAAKGEEIPEIVCFEKQDNWGGLWNYTWRTGLDENGEPVHCSMYRYLWSNGPKEGLEFADYSFEEHFGKQIASYPPRAVLFDYIEGRVLKANVRDWIRFSTAVRWIDYNDETGLFKVTVHDHTNDRVYSEEFDHVICASGHFSTPNVPHYEGFETFNGRLVHAHDFRDAREFAGKDILVVGSSYSAEDIGSQCWKYGAKSITSCYRSAPMGFKWPDNWEEKPALVKVDKNTVFFSDGTSREVDAIILCTGYKHFFNFLPDDLRLKTANRLATADLYKGVVYVHNPKMFYLGMQDQWFTFNMFDAQAWWVRDAIMGKIDLSNVTKEQMLADVTERETREEASDDVKYAIRYQADYVKELVAETDYPSFDIDGACEAFFQWKKHKGEDIMAFRNNSYTSVITGTLAPVHHTPWKDALDDSMEAYLRN | not soluble |
| MGSDKIHHHHHHMSSRNRIIWREGLFIKPQHFQQQQRHTDYALHARLSALSDYFYGLQSLAINEEYLNFGRIALVNASGVMPDGTVFNIPGDDALPLPLEITDVALANQKVYLALPLAVNGVSEVGQPGQGIASRLQSHRHDVRDLHSDGGDIVSLEVGKVSLRLMLDRDDRSAYASLAIANILDKRPDGGLILDPNFMPCSISVTAIPTLKRFLGESAGLVAERARSLAQRIAAPGQQGVADVAEFMMLQLLNRAQPKLSHLARLGTLHPERLHETLVELCGELMTFTDESRLPPEFPAYRHEHQQASFEPLMMALRQALSTVLSPRAVSIQLKKQPYGVMVAMVGDAELMTSAEFVLAVRARMPQEHLRKQLLQQTKIASSEKIRELISLQLPGIPLLPLPVAPRQLPYHAGYSYFQLDRQSPAWQVLVSGNTLAFHIAGEFPELDMQLWAIRGQ | not soluble |
| MMKLKFYLVYLWYKVLLKLGIKTDEIYYIGGSEALPPPLTKEEEEVLLNKLPKGDQAARSLLIERNLRLVVYIARKFENTGINIEDLISIGTIGLIKAVNTFNPEKKIKLATYASRCIENEILMHLRRNNKNRSEVSFDEPLNIDWDGNELLLSDVLGTDDDIITKDLEATVDRHLLMKALHQLNDREKQIMELRFGLAGGEEKTQKDVADMLGISQSYISRLEKRIIKRLRKEFNKMV | not soluble |
| MNKIYIKNMVCDRCIMVVTNILSQLELKVAHIALGEIVLLCPPTEKQMQELLDQLQKVGFEIIDDKRSRIVEQIKTCIRELVHRKNGMLKTNLSDYLCENIHLDYSYLSGLFSENEGRTIEKYFIYQKIERVKELLVYDDMQLSEIAYIMNYSSVAHLSNQFKKVTGFTPTYFKQMSTQCRKPLDKL | not soluble |
| MGSDKIHHHHHHMKVTIIGAAGQIPHFLIPMLQKQTDAELTLFARNATSRLLDYSKPTVRIVDGDASKSGDVKTAITDADVVFMDFDNPEAVKNVIKVMDQLGKKRLIVAGVLGVYDEVAGAFGKWNNMMIGSGYLPHKQAVTELEKSDLDYTYMRMTWLYDQDGNTNYETQKKGQPLIGAQVTRQAVSQYVIDMIKNPELGIRESNGVVEPNTNFAKPSFY | not soluble |
| MAHHHHHHSLNVLKDKLSGKNVKIVLPEGEDERVLTAATQLQATDYVTPIVLGDETKVQSLAQKLDLDISNIELINPATSELKAELVQSFVERRKGKATEEQAQELLNNVNYFGTMLVYAGKADGLVSGAAHSTGDTVRPALQIIKTKPGVSRTSGIFFMIKGDEQYIFGDCAINPELDSQGLAEIAVESAKSALSFGMDPKVAMLSFSTKGSAKSDDVTKVQEAVKLAQQKAEEEKLEAIIDGEFQFDAAIVPGVAEKKAPGAKLQGDANVFVFPSLEAGNIGYKIAQRLGGYDAVGPVLQGLNSPVNDLSRGCSIEDVYNLSIITAAQALQEG | soluble |
| MSLEKHRMLVIDDDPIAHQIMQMLFEAELRLTCKVTGEEGLSAVEEEQPEIVLLDIEMEGMDGYEACRRIRQLNLPSQPYIIFVSAHSDPVKRLAAYSVGGEDFVSKPLQPQELTRKVEQALRYRREGHHHHHH | not soluble |
| QAILYVGHGSRVKKAQQEAAAFLEGCKAHISVPVQEISFLELQEPTIETGFEACVKQGATHIAVVPLLLLTAAHAKHDIPEEIVRVASRYPSVRISYGKPIGIDEEVVKAVYHRMKDIGVPYENARVVLIGRGSSDPDVKRDVTGIANLLQEMVPVKEVIPCFLTACGPNYKEVFSELEKDDGITTFIVPYLLFTGMLMNEIEREVQKLKAHNPNVYLSSYIGFHPHVKNAFLNRVRETAANSEGQFDFDGGSYASAAH | not soluble |
| EGLDYLTAPNPPSIREELCTASHDTITVHWISDDEFSISSYELQYTIFTGQANFISLYNSVDSWMIVPNIKQNHYTVHGLQSGTRYIFIVKAINQAGSRNSEPTRLKTNSQPFK | soluble |
